The text below walks through data of patent US20210292396A1 (INTERNATIONAL AIDS VACCINE INITIATIVE, published 2021).

In test [1] the target is gp120 (isolate not stated; FIG. 19) (HIV).
For test [2], the target named is HIV Env of isolate Ce704809221_1B3 (HIV). The test can be described thus: cell-based or functional assay.
The target of another test is HIV Env of isolate CNE19 (HIV). The test can be described thus: cell-based or functional assay.
Test [3] concerns the target HIV Env of isolate 6540.v4.c1 (HIV). Briefly: cell-based or functional assay.
Test [4] has as its target HIV Env of isolate X1193_c1 (HIV). Briefly: cell-based or functional assay.
The next test concerns the target HIV Env of isolate CNE5 (HIV). The test can be described thus: cell-based or functional assay.

B1: PGT-121 (antibody, V domains shown)
VH: QMQLQESGPGLVKPSETLSLTCSVSGASISDSYWSWIRRSPGKGLEWIGYVHKSGDTNYSPSLKSRVNLSLDTSKNQVSLSLVAATAADSGKYYCARTLHGRRIYGIVAFNEWFTYFYMDVWGNGTQVTVSS
VL: SDISVAPGETARISCGEKSLGSRAVQWYQHRAGQAPSLIIYNNQDRPSGIPERFSGSPDSPFGTTATLTITSVEAGDEADYYCHIWDSRVPTKWVFGGGTTLTVLG
For the molecule B1, the EC50 (read off the curve) (commonly the concentration at which the effect is half-maximal) in test [1] was about 0.6 µg/mL. Moreover, the results for the “neutralization IC50” value (in test [2]; in the test with HIV Env of isolate CNE19) were 0.025 µg/mL and 0.008 µg/mL, respectively.

B2: ePGT121.15.H1.L1 (antibody, V domains shown)
VH: QMQLQESGPGLVKPGETLSLTCSVSGASISSSYWSWLRETPGKGLEWIGYTHHSGDTNYAPSLKSRVHLGLHPSKNQVSLSLTSVTAADTAVYYCARTLHGRRIYGVVAFNEWFTYFYWEVWGNGTQVTVSS
VL: SDISVAPGETVRISCGGESIGSRAVQWYQHRAGQAPKLIIYNNQDRPPGIPERFSGSPDIDFGTTATLTITNVEAGDEATYYCHIWDSRRPTNWVFGGGTTLTVL
On to B2, for which the “neutralization (Table 6 value)” value in test [3] is 0.249. The “neutralization IC50” value in test [4] worked out at 0.0001 µg/mL.

B3: ePGT121.15.H6.L1 (antibody, V domains shown)
VH: QMQLQESGPGLVKPGETLSLTCSVSGASISSSYWSWLRETPGKGLEWIGYTHHSGDTNYAPSLKSRVHLGLHPSKNQVSLSLTSVTAADTAVYYCARTLHGRRIYGVVAFNEFFTYFYWEVWGKGTQVTVSS
VL: SDISVAPGETVRISCGGESIGSRAVQWYQHRAGQAPKLIIYNNQDRPPGIPERFSGSPDIDFGTTATLTITNVEAGDEATYYCHIWDSRRPTNWVFGGGTTLTVL
On to B3, for which the “neutralization (Table 6 value)” value in test [3] worked out at 0.612; in the test with HIV Env of isolate CNE5 it was 2.72.
